Measured values as given in PMC11564117, “Control of mitophagy initiation and progression by the TBK1 adaptors NAP1 and SINTBAD” (Nature Structural & Molecular Biology, 2024).

Molecular target: T1, SINTBAD–mCherry (UniProt A7MCY6 1-615)
T1 construct: the legend says SINTBAD-mCherry; also called mCherry–SINTBAD; similar to NAP1 TBK1 adaptor; source: Sf9 insect cells, purified (GST-batch protocol); not shown: mCherry, C-terminal, kept
Assay: microscopy-based bead assay; Figs. 5b, 7d, 7f, Extended Data Fig. 9b: GST–4×Ub on glutathione beads; OPTN (mCherry-tagged or unlabeled) and GFP–TBK1 250 nM; NAP1, MBP–NAP1 or SINTBAD–mCherry 100 nM to 10 µM; unlabeled NDP52 250 nM where indicated; 25 mM Tris-HCl pH 7.4, 150 mM NaCl, 1 mM DTT; Fig. 5b without ATP, Fig. 7f with or without ATP/MgCl2; 30 min; confocal imaging
Settings: both partners purified

T1 sequence (A7MCY6 whole entry): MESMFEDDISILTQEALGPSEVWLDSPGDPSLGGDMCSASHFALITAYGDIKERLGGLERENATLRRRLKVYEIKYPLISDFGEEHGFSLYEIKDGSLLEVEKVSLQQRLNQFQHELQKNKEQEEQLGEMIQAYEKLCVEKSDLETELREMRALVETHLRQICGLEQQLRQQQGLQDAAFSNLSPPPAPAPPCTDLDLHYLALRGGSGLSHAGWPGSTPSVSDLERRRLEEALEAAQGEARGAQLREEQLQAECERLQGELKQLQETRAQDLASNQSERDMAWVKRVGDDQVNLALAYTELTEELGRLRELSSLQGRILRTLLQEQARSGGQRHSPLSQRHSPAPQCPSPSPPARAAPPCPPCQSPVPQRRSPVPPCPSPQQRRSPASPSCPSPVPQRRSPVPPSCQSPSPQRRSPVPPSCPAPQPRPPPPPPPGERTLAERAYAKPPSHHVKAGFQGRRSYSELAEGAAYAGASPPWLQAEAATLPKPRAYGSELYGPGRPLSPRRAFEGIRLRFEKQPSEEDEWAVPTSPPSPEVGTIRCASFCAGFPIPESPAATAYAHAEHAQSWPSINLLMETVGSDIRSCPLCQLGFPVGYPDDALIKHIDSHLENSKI

B1: NDP52 (unlabeled) (natural protein, human, UniProt Q13137 1-446, looked up)
chain: MEETIKDPPTSAVLLDHCHFSQVIFNSVEKFYIPGGDVTCHYTFTQHFIPRRKDWIGIFRVGWKTTREYYTFMWVTLPIDLNNKSAKQQEVQFKAYYLPKDDEYYQFCYVDEDGVVRGASIPFQFRPENEEDILVVTTQGEVEEIEQHNKELCKENQELKDSCISLQKQNSDMQAELQKKQEELETLQSINKKLELKVKEQKDYWETELLQLKEQNQKMSSENEKMGIRVDQLQAQLSTQEKEMEKLVQGDQDKTEQLEQLKKENDHLFLSLTEQRKDQKKLEQTVEQMKQNETTAMKKQQELMDENFDLSKRLSENEIICNALQRQKERLEGENDLLKRENSRLLSYMGLDFNSLPYQVPTSDEGGARQNPGLAYGNPYSGIQESSSPSPLSIKKCPICKADDICDHTLEQQQMQPLCFNCPICDKIFPATEKQIFEDHVFCHSL
notes: NDP52 (CALCOCO2), human cDNA in a pGST2 vector with N-terminal GST tag and TEV site; Called 'unlabeled NDP52' in the bead assays; also called nuclear dot protein 52; CALCOCO2; source: E. coli Rosetta pLysS, purified (GST-batch protocol)
binding result: binds
